Results on 11 molecules are retold here after article PMC3567257 (Biochemistry, 2012).

First the molecules themselves.
T1: H3(1-19)K9me3K19fluo (UniProt P68431 2-20, trimethyl-lysine at position 9; fluorescein on lysine 19 (K19fluo))
T1 chain: ARTKQTARKSTGGKAPRKK

T2: (HQ)5-HaloTag-JARID1A PHD3 (UniProt P29375 1601-1660)
T2 sequence (looked up): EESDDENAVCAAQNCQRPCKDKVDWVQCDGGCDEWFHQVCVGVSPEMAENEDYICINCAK

T3: GST-JARID1A PHD3 D1629A (UniProt P29375 1601-1660, D1629A)
T3 sequence (looked up): T2 sequence (looked up) with D29A

T4: GST-JARID1A PHD3 D1629N (UniProt P29375 1601-1660, D1629N)
T4 sequence (looked up): T2 sequence (looked up) with D29N

T5: GST-JARID1A PHD3 D1624A (UniProt P29375 1601-1660, D1624A)
T5 sequence (looked up): T2 sequence (looked up) with D24A

T6: GST-JARID1A PHD3 D1624N (UniProt P29375 1601-1660, D1624N)
T6 sequence (looked up): T2 sequence (looked up) with D24N

T7: (HQ)5-HaloTag-JMJD2A double tudor domain (UniProt O75164 895-1011)
T7 sequence (looked up): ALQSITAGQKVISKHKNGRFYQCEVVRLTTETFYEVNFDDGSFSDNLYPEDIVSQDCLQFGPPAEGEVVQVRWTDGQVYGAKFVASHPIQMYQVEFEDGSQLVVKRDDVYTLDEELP

T8: (HQ)5-HaloTag-AIRE PHD1 (UniProt O43918 293-354)
T8 sequence (looked up): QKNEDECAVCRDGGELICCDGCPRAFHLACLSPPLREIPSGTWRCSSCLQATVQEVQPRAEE

B1: GST-UHRF1 TTD (domain or fragment)
chain: MWDETELGLYKVNEYVDARDTNMGAWFEAQVVRVTRKAPSRDEPCSSTSRPALEEDVIYHVKYDDYPENGVVQMNSRDVRARARTIIKWQDLEVGQVVMLNYNPDNPKERGFWYDAEISRKRETRTARELYANVVLGDDSLNDCRIIFVDEVFKIERPGE
B2: GST-JARID1A PHD3 (domain or fragment, UniProt P29375 1601-1660, looked up)
chain: T2 sequence (looked up)
B3: H3(1-14)K4unmodifiedK14fluo (peptide, UniProt P68431 2-15, looked up)
peptide: ARTKQTARKSTGGK(5FAM)
B4: H3(1-14)K4me3K14fluo (peptide, UniProt P68431 2-15, looked up)
peptide: ARTKQTARKSTGGK
modifications: trimethyl-lysine at position 4; 5-carboxyfluorescein on lysine 14
B5: GST-BHC80 PHD (domain or fragment, UniProt Q96BD5 486-543, looked up)
chain: IHEDFCSVCRKSGQLLMCDTCSRVYHLDCLDPPLKTIPKGMWICPRCQDQMLKKEEAI
B6: GST-JMJD2A DTD (domain or fragment, UniProt O75164 895-1011, looked up)
chain: T7 sequence (looked up)
B7: GST-AIRE PHD1 (domain or fragment, UniProt O43918 293-354, looked up)
chain: T8 sequence (looked up)
B8: GST-RAG2 PHD (domain or fragment, UniProt P21784 414-487, looked up)
chain: GYWITCCPTCDVDINTWVPFYSTELNKPAMIYCSHGDGHWVHAQCMDLEERTLIHLSEGSNKYYCNEHVQIARA

Experiment [1] deals with T1, H3(1-19)K9me3K19fluo. Nature of the experiment: fluorescence polarisation.
The target of experiment [2] is T2, (HQ)5-HaloTag-JARID1A PHD3. Nature of the experiment: HaloTag plate binding assay.
Experiment [3] addresses T2, (HQ)5-HaloTag-JARID1A PHD3. Kind of experiment: pull-down.
Experiment [4] deals with B4. Nature of the experiment: fluorescence polarisation.
Experiment [5] deals with B2. Nature of the experiment: fluorescence polarisation. (In general: In fluorescence polarisation assays a small probe gives low polarisation when free and higher when bound to something large.)
Experiment [6] has as its target T3, GST-JARID1A PHD3 D1629A. Nature of the experiment: fluorescence polarisation.
Experiment [7] concerns the target T4, GST-JARID1A PHD3 D1629N. Kind of experiment: fluorescence polarisation.
For experiment [8], the target named is T5, GST-JARID1A PHD3 D1624A. Nature of the experiment: fluorescence polarisation.
Experiment [9] has as its target T6, GST-JARID1A PHD3 D1624N. Nature of the experiment: fluorescence polarisation.
For experiment [10], the target named is B3. Nature of the experiment: fluorescence polarisation.
The target in experiment [11] is T7, (HQ)5-HaloTag-JMJD2A double tudor domain. Nature of the experiment: HaloTag plate binding assay.
Experiment [12] concerns the target (HQ)5-HaloTag-BHC80 PHD (UniProt Q96BD5 486-543).
Experiment [13] concerns the target T8, (HQ)5-HaloTag-AIRE PHD1. Kind of experiment: HaloTag plate binding assay.

As usually defined, the IC50 is the concentration that inhibits the measured activity by half. Low readings indicate inhibition by little substance, high ones a need for much substance. One may read the Kd as the free concentration of one partner at which half of the binding sites on the other are occupied at equilibrium, for simple one-to-one binding.

Substitutions are numbered along the chain they refer to. No end group written: not given here. *: point of attachment. 5FAM = O=C1OC2(c3ccc(O)cc3Oc3cc(O)ccc32)c2ccc(C(=O)*)cc21

Turning to B1, the “protein concentration at 90% fraction bound” value in experiment [1] came out at 18 µM.
As for ARTKQTARKSTW (Kme3 (trimethyl-lysine) at position 4) [unlabeled (no biotin) histone H3 (1-11) K4me3 peptide], the IC50 in [2] is 2.97 ± 0.35 µM; in experiment [3], 13.6 ± 4.5 µM.
With B2, the “protein concentration at 90% fraction bound” value in experiment [4] was determined as 1 µM.
Take B3: the Kd in experiment [5] stood at 9.35 ± 1.57 µM.
In the case of B4, the Kd in experiment [6] was 4.05 ± 0.691 µM; in experiment [7] it was 3.81 ± 0.551 µM; in [5], 0.294 ± 0.046 µM; in experiment [8], 1.15 ± 0.145 µM; in [9], 0.634 ± 0.08 µM.
For B5, the “protein concentration at 90% fraction bound” value in [10] was found to be 60 µM.
Take ARTKQTARKSTEW (Kme3 (trimethyl-lysine) at position 4; E(PEG-biotin) at position 12) [biotinylated histone H3 (1-11) peptide trimethylated at lysine 4]: the binding result in experiment [11] is “binds”.
With ARTKQTARKSTEW (E(PEG-biotin) at position 12) [biotinylated histone H3 (1-11) peptide, unmethylated], the Kd in experiment [12] is over 15 µM. Moreover, the binding result in [13] is recorded as “binds”.
Take B6: the “protein concentration at 90% fraction bound” value in experiment [4] came out at 4 µM.
Turning to B7, the “protein concentration at 90% fraction bound” value in experiment [10] amounted to 4 µM.
In the case of B8, the “protein concentration at 90% fraction bound” value in experiment [4] was determined as 25 µM.
